From patent US20260258141A1 (BIOCYTOGEN PHARMACEUTICALS BEIJING, published 2026)

Tests used:
[1] = target: T1, cynomolgus monkey IGF1R on cells (cynomolgus monkey, UniProt P08069 31-1367 (human entry)); assay: flow cytometry on CHO-S-fasIGF1R cells, antibody 20 µg/mL
T1 construct: Expressed on CHO-S cells; also called fasIGF1R; CHO-S-fasIGF1R cells
Procedure: INSR (insulin receptor) and IGF1R are both members of the superfamily of receptor tyrosine kinases (RTKs). The binding activity of anti-IGF1R antibodies to human IGF1R, human INSR and monkey IGF1R was verified by flow cytometry. Briefly, CHO-S-hIGF1R cells (expressing human IGF1R (SEQ ID NO: 45), CHO-S-fasIGF1R cells (expressing cynomolgus monkey IGF1R (SEQ ID NO: 46) and CHO-S-hINSR (expressing SEQ ID NO: 47) were plated in a 96-well plate at a density of 2×10⁵ cells/well respectively. Purified anti-IGF1R antibody with a concentration of 20 μg/mL was added to each well and was incubated at 4° C. for 30 minutes. Then, after one wash with PBS, the cells were incubated with the secondary antibody Alexa Fluor® 647 anti-human IgG Fcγ (Jackson ImmunoResearch Laboratories, Inc., Cat #: 109-606-170) at 4° C. for 15 minutes before flow cytometry analysis. Human IgG1 was used as ISO control.

[2] = target: T2, His-tagged human IGF1R protein (ACRO Biosystems Inc., Cat #: IGR-H5229) (human, UniProt P08069 31-932); assay: blocking ELISA on coated hIGF1R-His; blocked ligand: biotinylated human IGF-I
T2 construct: Bought protein; also called hIGF1R-His; not shown: His tag
T2 sequence (P08069 31-932): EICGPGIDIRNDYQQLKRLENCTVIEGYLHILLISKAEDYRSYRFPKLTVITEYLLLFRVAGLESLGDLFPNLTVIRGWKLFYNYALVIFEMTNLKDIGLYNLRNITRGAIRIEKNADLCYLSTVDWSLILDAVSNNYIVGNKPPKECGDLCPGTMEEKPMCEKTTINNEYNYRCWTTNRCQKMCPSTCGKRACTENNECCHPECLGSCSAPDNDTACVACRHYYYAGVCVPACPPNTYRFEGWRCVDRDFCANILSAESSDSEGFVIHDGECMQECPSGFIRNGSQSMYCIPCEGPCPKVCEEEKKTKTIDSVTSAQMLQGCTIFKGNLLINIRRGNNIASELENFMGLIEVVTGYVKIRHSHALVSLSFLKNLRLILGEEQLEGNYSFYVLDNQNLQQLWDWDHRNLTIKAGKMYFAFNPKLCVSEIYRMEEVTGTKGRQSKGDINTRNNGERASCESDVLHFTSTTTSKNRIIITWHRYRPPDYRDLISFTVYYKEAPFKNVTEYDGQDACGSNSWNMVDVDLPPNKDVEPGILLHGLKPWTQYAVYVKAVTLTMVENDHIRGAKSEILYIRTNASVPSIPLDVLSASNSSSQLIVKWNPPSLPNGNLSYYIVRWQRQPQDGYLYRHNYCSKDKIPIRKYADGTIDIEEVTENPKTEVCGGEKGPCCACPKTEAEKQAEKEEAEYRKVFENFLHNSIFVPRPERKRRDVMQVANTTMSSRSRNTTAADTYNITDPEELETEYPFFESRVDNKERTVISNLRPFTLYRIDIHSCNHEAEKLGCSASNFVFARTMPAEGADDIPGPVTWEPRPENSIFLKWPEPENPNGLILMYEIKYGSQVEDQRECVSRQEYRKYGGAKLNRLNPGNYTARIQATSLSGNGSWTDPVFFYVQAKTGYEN
Procedure: (§1) Blocking assays were performed to determine whether the anti-IGF1R antibodies can block the binding between IGF1R and its ligand IGF-1 and IGF-2. Specifically, the microwell plates were coated with 100 μl/well of 5 μg/mL hIGF1R-His in pH 9.6 carbonate buffer, overnight at 4° C. Plates were blocked with at 200 μl/well of 1% bovine serum albumin and incubated at 37° C. for 2 hours. Serially diluted anti-IGF1R antibodies (0.005-10 μg/mL in 3-fold serial dilution plus buffer blank) were added to the plates at 100 μL/well. After a 1.5-hour incubation, Biotinylated Human IGF-I Protein (Acro Biosystems, Cat #: IG1-H82F7) or Biotinylated Human IGF-I Protein was replaced with Biotinylated Human IGF-II Protein (Acro Biosystems, Cat #: IG2-H82Q6) were added to the plates at 100 μL/well. After a 1.5-hour incubation at 37° C., HRP Streptavidin (Biolegend, Cat #: 405210) at 1:3000 dilution was added to the plates at 100 μL/well and incubated for 1 hour. Plates were washed 5 times and 100 μL of TMB was added to each well, and incubated for 10 minutes. 100 uL of 1M Phosphoric Acid was then added to each well and ELISA plates were read at 450/570 nm wavelength. A fitting curve was obtained using Log (antibody concentration (M)) as the X-axis and […] as the Y-axis.

[3] = target: T2, His-tagged human IGF1R protein (ACRO …); assay: SPR (Biacore 8K) on captured hIGF1R-His, binder injected second (Analyte 2); competitor injected first (Analyte 1): 10G1
Procedure: Epitope binding assays were performed using Biacore™ 8K biosensor to determine whether two anti-IGF1R antibodies target the same or overlapping epitopes. 1×HBS-EP+ buffer (10 mM 4-(2-hydroxyethyl)-1-piperazineethanesulfonic acid (HEPES), 150 mM NaCl, 3 mM ethylenediaminetetraacetic acid (EDTA) and 0.05% P20, pH7.4) diluted from HBS-EP+buffer (10×) was used as the running buffer throughout the experiment. About 50 RU of hIGF1R-His was captured at a flow rate of 10 μL/min, and 200 nM of the tested antibody (Analyte 1) was injected at a flow rate of 30 uL/min to bind the ligand. Another comparison antibody (Analyte 2) was injected under the same conditions to determine whether the binding of different antibodies interfered with each other. The binding time was 180 s for each antibody.
The binding value of each antibody was obtained using Biacore Insight Evaluation (Version: 2.0.15.12933). To quantify the interference of one antibody binding to another, a binding ratio was calculated to compare each pair of antibodies. The binding ratio is defined as the binding value of the second antibody (Analyte 2) divided by the binding value of the first antibody (Analyte 1). The threshold to determine the block or non-block is 0.3.

[4] = target: T2, His-tagged human IGF1R protein (ACRO …); assay: blocking ELISA on coated hIGF1R-His; blocked ligand: biotinylated human IGF-II
Procedure: as §1

T1 sequence (P08069 other isoform, or with tags, fused parts or gaps limits assumed): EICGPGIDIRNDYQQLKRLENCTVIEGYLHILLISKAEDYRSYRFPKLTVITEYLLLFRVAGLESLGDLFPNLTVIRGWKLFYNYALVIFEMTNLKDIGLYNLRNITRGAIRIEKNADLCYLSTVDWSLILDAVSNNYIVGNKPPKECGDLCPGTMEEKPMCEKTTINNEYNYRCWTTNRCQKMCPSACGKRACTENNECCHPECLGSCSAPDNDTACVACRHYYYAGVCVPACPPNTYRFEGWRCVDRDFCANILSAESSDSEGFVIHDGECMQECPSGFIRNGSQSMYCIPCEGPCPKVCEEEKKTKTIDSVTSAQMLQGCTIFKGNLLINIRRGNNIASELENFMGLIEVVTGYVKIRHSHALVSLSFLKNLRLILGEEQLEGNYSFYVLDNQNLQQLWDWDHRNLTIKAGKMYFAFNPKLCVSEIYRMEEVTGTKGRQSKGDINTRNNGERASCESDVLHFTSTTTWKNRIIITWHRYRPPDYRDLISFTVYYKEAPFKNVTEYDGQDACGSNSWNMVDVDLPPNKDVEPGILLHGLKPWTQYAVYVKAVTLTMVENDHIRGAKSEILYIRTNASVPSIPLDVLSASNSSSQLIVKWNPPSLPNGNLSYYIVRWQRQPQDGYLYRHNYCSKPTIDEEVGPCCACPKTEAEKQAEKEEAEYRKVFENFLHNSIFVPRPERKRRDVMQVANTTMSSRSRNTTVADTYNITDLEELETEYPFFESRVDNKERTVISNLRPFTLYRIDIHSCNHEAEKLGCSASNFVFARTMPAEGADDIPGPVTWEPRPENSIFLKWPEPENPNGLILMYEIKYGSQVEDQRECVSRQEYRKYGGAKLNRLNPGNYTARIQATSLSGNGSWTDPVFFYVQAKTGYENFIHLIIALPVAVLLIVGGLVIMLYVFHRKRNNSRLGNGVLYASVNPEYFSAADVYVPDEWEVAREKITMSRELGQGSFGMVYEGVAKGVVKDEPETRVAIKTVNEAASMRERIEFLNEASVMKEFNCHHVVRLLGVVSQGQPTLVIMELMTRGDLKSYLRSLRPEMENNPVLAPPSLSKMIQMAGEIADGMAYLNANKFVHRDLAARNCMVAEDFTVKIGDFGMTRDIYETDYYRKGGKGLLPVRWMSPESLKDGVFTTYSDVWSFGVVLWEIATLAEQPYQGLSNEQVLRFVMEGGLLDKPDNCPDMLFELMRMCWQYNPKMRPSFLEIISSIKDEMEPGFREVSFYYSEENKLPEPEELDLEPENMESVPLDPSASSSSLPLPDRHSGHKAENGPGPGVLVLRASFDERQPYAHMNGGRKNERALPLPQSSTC

| Binder | Percentage of positive cells [1] | IC50 [2] | Max inhibition (%) (10 µg/mL) [2] | binding ratio (Analyte 2 / Analyte 1) [3] | IC50 [4] | Max inhibition (%) (10 µg/mL) [4] |
| --- | --- | --- | --- | --- | --- | --- |
| anti-IGF1R antibody 10G1 (antibody, human IgG1, V domains shown) VH: QVQLVESGGGLVKPGGSLRLSCAASEFTFSDYYMSWIRQSPGKGLEWVSYISNSGSFTNYADSVKGRFTISRDNAKNSLYLQMNSLRAEDSAIYYCVRDQAPVTSKYYYYGMDVWGQGTTVTVSS VL: EIVLTQSPSSLSASVGDRVTITCRASQGIRNDFAWYQQKPGKAPKRLIYAASRLQRGVPSRFSGSGSGTEFTLTISSLQPEDFATYYCLQHNSYPYTFGQGTKLEIK | 73.9% | 1.6 nM | 43% | -0.01 | 5.2 nM | 73% |
| anti-IGF1R antibody 10D1 (antibody, human IgG1, V domains shown) VH: QVQLQQSGGGVVRPGGSLRLSCAASGFTFADYGMSWVRQVPGKGLEWVSGINWNGGSTDYADSVKGRFTISRDNAKHSLYLQMNSLRAEDTAFYYCARDRGAVSRRYYYYGMDVWGLGTTVTVSS VL: AIQLTQSPSSLSASVGDRVTITCRASQDIRNDLGWYQLKPGKAPKRLIYAASRLQSGVPSGFSGSGSGTEFTLTISSLQPEDFATYYCLQHNSYPYTFGQGTKLEIK | 64.8% | 1.3 nM | 47% | 0.02 | 1.7 nM | 76% |

Continued by falling IC50 [2], values first:

| Percentage of positive cells [1] | IC50 [2] | Max inhibition (%) (10 µg/mL) [2] | binding ratio (Analyte 2 / Analyte 1) [3] | IC50 [4] | Max inhibition (%) (10 µg/mL) [4] | Binder |
| --- | --- | --- | --- | --- | --- | --- |
| 60.7% | 2.2 nM | 55% | 0 | 1.6 nM | 88% | anti-IGF1R antibody 12D1 (antibody, human IgG1, V domains shown) VH: QVQLVESGGGVVRPGGSLRLSCAASGFTFDDYGMSWVRQVPGKGLEWVSGINWNGGSTDYADSVKGRFTISREKAKNSLYLQMNSLRAEDTALYYCVRDRGAVTRRYYYYGMDVWGQGTTVTVSS VL: DIQMTQSPSSLSASVGDRVTITCRASQDIRNDLGWYQLKPGKAPKRLIYAASRLQSGVPSRFSGSGSGTEFTLTISSLQPEDFATYYCLQHNSYPYTFGQGTKLEIK |
| 54.4% | 2 nM | 50% | -0.01 | 1.9 nM | 81% | anti-IGF1R antibody 12A4 (antibody, V domains shown) VH: EVQLVQSGGGEIRPGGSLRLSCAASGFTFADYGMSWVRQAPGEGLEWVSEIDWTGGSKLYADSVKGRFTISRDNAKNSLFLQMNSLRAEDTALYYCVRDRGAVSPKYYYYGMDVWGQGTTVTVSS VL: EIVLTQSPSSLSASVGDRVTITCRASQGIRNDLGWYQQKPGKAPKRLIYAASRLQSGVPSRFSGSGSGTDFTLTISSLQPEDFATYYCLQHNSYPYTFGQGTKLEIK |
